# Source: publication PMC2173386 (The Journal of Cell Biology, 2002)
# T1: His-p47(171–270) (UniProt O35987 171-270)
# T1 sequence (looked up): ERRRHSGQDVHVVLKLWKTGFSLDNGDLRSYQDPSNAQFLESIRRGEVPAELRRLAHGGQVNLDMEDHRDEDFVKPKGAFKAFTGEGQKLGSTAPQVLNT
# Experiments:
# His-p47(171–270) = target: T1, His-p47(171–270); test: pull-down
# [1] = target: T2, p97 (valosin-containing protein) (rat, UniProt P46462 1-806); test: pull-down
# [2] = target: T2, p97 (valosin-containing protein); test: co-IP
binding result [1],Binder,also measured
–,"GST-tagged p97(1–74) (domain or fragment, rat, UniProt P46462 1-74, looked up) MASGADSKGDDLSTAILKQKNRPNRLIVDEAINEDNSVVSLSQPKMDELQLFRGDTVLLKGKKRREAVCIVLSD",binding result (His-p47(171–270)): binds
binds,"GST-tagged p47(271–370) (domain or fragment, UniProt O35987 271-370, looked up) SSPAQQAENEAKASSSILINEAEPTTNIQIRLADGGRLVQKFNHSHRISDIRLFIVDARPAMAATSFVLMTTFPNKELADENQTLKEANLLNAVIVQRLT",–
binds,"GST-tagged p47(171–270) (domain or fragment, UniProt O35987 171-270, looked up) ERRRHSGQDVHVVLKLWKTGFSLDNGDLRSYQDPSNAQFLESIRRGEVPAELRRLAHGGQVNLDMEDHRDEDFVKPKGAFKAFTGEGQKLGSTAPQVLNT",–
–,"His-tagged VCIP135(744–1221) (domain or fragment, rat, UniProt Q8CF97 744-1221, looked up) TVSPSTIRDGPSSAPATPTKAPYSPTTSKEKKIRITTNDGRQSMVTLKSSTTFFELQESIAREFNIPPYLQCIRYGFPPKELMPPQAGMEKEPVPLQHGDRITIEILKGKAEGGPSTAAHSAHTVRQEEIAVTGKLSSKELQEQADKEMYSLCLLATLMGEDVWSYAKGLPHMFQQGGVFYNIMKKTMGMADGKHCTFPHLPGKTFVYNASEDRLELCVDAAGHFPIGPDVEDLVKEAVSQVRAEATTRSRESSPSHGLLKLGSGGVVKKKSEQLHNVTAFQGKGHSLGTASSNPHMDPRARETLAVRKHNTGTDFSNSSIKTEPPVFTAASSNSELIRIAPGVVTMRDGRQIDPDVVEAQRKKLQEMVSSIQASMDKHLRDQSTEQTPSDLSQRKVEAVSSSVRPGNLQTGLPESFSLTGGTENLNTETTDSRVADVLGAAFATRSKAQKENSMEEPEEMDSQDAETTNTTEPMDHS",binding result [2]: binds
